Data reported in patent EP1272205B1 (The Johns Hopkins University, dated 2013).

Tests used:
[1] = target: T1, SAF-2 polypeptide (extracellular domain of sialoadhesin factor-2, released from SAF-2/Fc with Factor Xa) (human, UniProt Q9NYZ4 17-363); assay: BIAcore SPR; mAb captured on rabbit anti-mouse IgG Fc surface, SAF-2 injected
T1 construct: extracellular domain; The BIAcore paragraph says only 'SAF-2 (diluted in HBS buffer)'; also called Siglec-8

[2] = target: SAF-2 on cells (human eosinophils, basophils, cord blood-derived mast cells; HEK293 cells transfected with full length SAF-2) (human) (UniProt Q9NYZ4); assay: indirect immunofluorescence flow cytometry on human basophils
[3] = target: T1, SAF-2 polypeptide (extracellular domain …); assay: BIAcore SPR; mAb captured on rabbit anti-mouse IgG Fc surface, SAF-2 injected; calculated from rates

T1 sequence (Q9NYZ4 17-363): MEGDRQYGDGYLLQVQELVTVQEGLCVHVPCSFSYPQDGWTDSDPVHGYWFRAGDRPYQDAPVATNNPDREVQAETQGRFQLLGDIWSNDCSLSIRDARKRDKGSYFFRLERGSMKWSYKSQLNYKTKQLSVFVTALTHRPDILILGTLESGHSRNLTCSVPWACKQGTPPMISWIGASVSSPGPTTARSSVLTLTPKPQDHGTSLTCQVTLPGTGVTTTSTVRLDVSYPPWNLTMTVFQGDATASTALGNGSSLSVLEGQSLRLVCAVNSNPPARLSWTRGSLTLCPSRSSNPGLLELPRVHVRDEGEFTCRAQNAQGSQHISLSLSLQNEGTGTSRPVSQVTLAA
Chain of SAF-2 on cells (human eosinophils, basophils, cord blood-derived mast cells; HEK293 cells transfected with full length SAF-2) (human) (Q9NYZ4 17-499): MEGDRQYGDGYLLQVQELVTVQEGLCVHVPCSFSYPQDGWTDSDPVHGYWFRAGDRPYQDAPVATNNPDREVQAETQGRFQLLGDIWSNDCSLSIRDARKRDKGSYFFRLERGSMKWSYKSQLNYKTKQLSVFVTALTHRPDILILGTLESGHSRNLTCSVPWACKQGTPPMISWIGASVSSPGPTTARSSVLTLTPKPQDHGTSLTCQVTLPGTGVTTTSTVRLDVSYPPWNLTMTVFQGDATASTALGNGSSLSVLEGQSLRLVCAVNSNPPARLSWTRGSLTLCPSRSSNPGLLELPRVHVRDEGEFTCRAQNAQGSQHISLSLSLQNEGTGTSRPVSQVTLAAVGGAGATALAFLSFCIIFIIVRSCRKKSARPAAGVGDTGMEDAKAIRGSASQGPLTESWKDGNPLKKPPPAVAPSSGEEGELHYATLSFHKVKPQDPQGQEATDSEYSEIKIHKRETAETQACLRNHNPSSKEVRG

B1: monoclonal antibody 2C4 (antibody, V domains shown)
VH: QVQLKESGPGLVAPSQSLSITCTVSGFSLIYGAHWVRQPPGKGLEWLGVIWAGGSTNYNSALMSRLSISKDNSKSQVFLKINSLQTDDTALYYCARDGSSPYYYSMEYWGQGTSVTVSS
VL: EIILTQSPAIMSASPGEKVSITCSATSSVSYMHWFQQKPGTSPKLWIYSTSNLASGVPVRFSGSGSGTSYSLTISRMEAEDAATYYCQQRSSYPFTFGSGTKLEIKR
notes: also called mAb 2C4
Question: How did the koff [1] turn out when B1 was run?
Answer: 4.3e-05 s⁻¹

Question: And the kon [1]?
Answer: 220000 M⁻¹ s⁻¹

Question: What about the percent positive (percent positive) [2] of the same binder?
Answer: 21.1

Question: What about the Kd [3] of the same binder?
Answer: 200 pM
